The values below are quoted from earlier work in paper PMC6776250.

Usually Kd stands for the concentration at which binding is half-saturated.

This data set addresses RNase Y (Bacillus subtilis) (UniProt O31774). The data set is described as follows: SPR. In general terms: Surface plasmon resonance follows binding to a sensor surface in real time, without labels.
Chain of UniProt O31774 (O31774 whole entry): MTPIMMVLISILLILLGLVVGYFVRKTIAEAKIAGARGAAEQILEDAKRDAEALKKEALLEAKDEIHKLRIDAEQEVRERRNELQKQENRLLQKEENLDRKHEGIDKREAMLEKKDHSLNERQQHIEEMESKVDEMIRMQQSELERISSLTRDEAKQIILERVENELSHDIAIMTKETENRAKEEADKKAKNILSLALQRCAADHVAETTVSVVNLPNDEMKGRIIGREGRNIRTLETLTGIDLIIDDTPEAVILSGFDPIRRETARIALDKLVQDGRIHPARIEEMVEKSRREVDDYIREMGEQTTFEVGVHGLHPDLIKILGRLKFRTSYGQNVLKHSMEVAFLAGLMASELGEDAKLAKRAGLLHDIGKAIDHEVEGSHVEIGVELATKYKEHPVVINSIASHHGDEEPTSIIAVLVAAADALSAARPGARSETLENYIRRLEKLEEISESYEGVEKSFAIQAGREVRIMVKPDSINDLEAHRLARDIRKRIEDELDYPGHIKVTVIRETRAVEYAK

With PNPase (from UniProt P50849), the Kd is 5 nM.
